Measurements reported in patent EP2966448B1, “METHOD FOR THE PREDICTION OR PROGNOSIS OF THE RESPONSE OF A HUMAN SUBJECT SUFFERING FROM CANCER TO TREATMENT WITH AN ANTAGONIST OF THE NK1 RECEPTOR” (priority 2013, dated 2014).

Biological target: NK1 receptor (human) (UniProt P25103)
Assay: cell-based or functional assay

Sequence of NK1 receptor (human) (P25103 87-407): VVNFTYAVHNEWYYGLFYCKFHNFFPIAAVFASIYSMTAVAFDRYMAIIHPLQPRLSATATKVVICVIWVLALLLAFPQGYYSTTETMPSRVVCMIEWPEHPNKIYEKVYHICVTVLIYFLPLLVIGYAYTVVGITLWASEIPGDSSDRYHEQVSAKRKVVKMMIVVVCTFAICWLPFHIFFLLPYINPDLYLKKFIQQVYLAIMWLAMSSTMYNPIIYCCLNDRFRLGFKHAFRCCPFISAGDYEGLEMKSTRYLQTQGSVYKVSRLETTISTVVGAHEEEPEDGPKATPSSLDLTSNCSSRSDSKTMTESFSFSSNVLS

For “antibody against NK1 receptor (Sigma-Aldrich, catalogue number S8305)”, the Percentage of inhibition of cell cultures; Lung carcinoma (non small cell lung carcinoma); cases with presence of ERK was 95%, the Percentage of inhibition of cell cultures; Lung carcinoma (non small cell lung carcinoma); cases without presence of AKT was 25% and the Percentage of inhibition of cell cultures; Lung carcinoma (non small cell lung carcinoma); cases without presence of ERK was 29%. It also gave a Percentage of inhibition of cell cultures; Lung carcinoma (non small cell type); Group 1 (expression in less than 20% of the cells) of 23%, a Percentage of inhibition of cell cultures; Lung carcinoma (non small cell type); Group 2 (expression in 20-80% of the cells) of 55% and a Percentage of inhibition of cell cultures; Lung carcinoma (non small cell type); Group 3 (expression in more than 80% of the cells) of 94%. It also gave a Percentage of inhibition of cell cultures; Lung carcinoma (non small cell type); Intensity grade 1 of 24%, a Percentage of inhibition of cell cultures; Lung carcinoma (non small cell type); Intensity grade 2 of 55% and a Percentage of inhibition of cell cultures; Lung carcinoma (non small cell type); Intensity grade 3 of 97%. The Percentage of inhibition of cell cultures; Lung carcinoma (small cell lung carcinoma); cases with presence of AKT was 94%, the Percentage of inhibition of cell cultures; Lung carcinoma (small cell lung carcinoma); cases with presence of ERK was 94% and the Percentage of inhibition of cell cultures; Lung carcinoma (small cell lung carcinoma); cases without presence of AKT was 24%. For the same substance, the Percentage of inhibition of cell cultures; Lung carcinoma (small cell lung carcinoma); cases without presence of ERK was 27%, the Percentage of inhibition of cell cultures; Lung carcinoma (small cell type); Group 1 (expression in less than 20% of the cells) was 24% and the Percentage of inhibition of cell cultures; Lung carcinoma (small cell type); Group 2 (expression in 20-80% of the cells) was 56%. The Percentage of inhibition of cell cultures; Lung carcinoma (small cell type); Group 3 (expression in more than 80% of the cells) was 95%, the Percentage of inhibition of cell cultures; Lung carcinoma (small cell type); Intensity grade 1 was 25% and the Percentage of inhibition of cell cultures; Lung carcinoma (small cell type); Intensity grade 2 was 54%. For the same substance, the Percentage of inhibition of cell cultures; Lung carcinoma (small cell type); Intensity grade 3 was 94%, the Percentage of inhibition of cell cultures; Malignant Fibrous Histiocytoma.; Group 1 (expression in less than 20% of the cells) was 22% and the Percentage of inhibition of cell cultures; Malignant Fibrous Histiocytoma.; Group 2 (expression in 20-80% of the cells) was 56%. It also gave a Percentage of inhibition of cell cultures; Malignant Fibrous Histiocytoma.; Group 3 (expression in more than 80% of the cells) of 96%, a Percentage of inhibition of cell cultures; Malignant Fibrous Histiocytoma.; Intensity grade 1 of 25% and a Percentage of inhibition of cell cultures; Malignant Fibrous Histiocytoma.; Intensity grade 2 of 55%. For the same substance, the Percentage of inhibition of cell cultures; Malignant Fibrous Histiocytoma.; Intensity grade 3 was 95%, the Percentage of inhibition of cell cultures; Melanoma (Nodular Melanoma); cases with presence of AKT was 97% and the Percentage of inhibition of cell cultures; Melanoma (Nodular Melanoma); cases with presence of ERK was 90%. The Percentage of inhibition of cell cultures; Melanoma (Nodular Melanoma); cases without presence of AKT was 25%, the Percentage of inhibition of cell cultures; Melanoma (Nodular Melanoma); cases without presence of ERK was 28% and the Percentage of inhibition of cell cultures; Melanoma; Group 1 (expression in less than 20% of the cells) was 24%. For the same substance, the Percentage of inhibition of cell cultures; Melanoma; Group 2 (expression in 20-80% of the cells) was 55%, the Percentage of inhibition of cell cultures; Melanoma; Group 3 (expression in more than 80% of the cells) was 96% and the Percentage of inhibition of cell cultures; Melanoma; Intensity grade 1 was 23%. It also gave a Percentage of inhibition of cell cultures; Melanoma; Intensity grade 2 of 56%, a Percentage of inhibition of cell cultures; Melanoma; Intensity grade 3 of 97% and a Percentage of inhibition of cell cultures; Myeloma; Group 1 (expression in less than 20% of the cells) of 23%. For the same substance, the Percentage of inhibition of cell cultures; Myeloma; Group 2 (expression in 20-80% of the cells) was 56%, the Percentage of inhibition of cell cultures; Myeloma; Group 3 (expression in more than 80% of the cells) was 96% and the Percentage of inhibition of cell cultures; Myeloma; Intensity grade 1 was 25%. For the same substance, the Percentage of inhibition of cell cultures; Myeloma; Intensity grade 2 was 56%, the Percentage of inhibition of cell cultures; Myeloma; Intensity grade 3 was 95% and the Percentage of inhibition of cell cultures; Neuroblastoma; Group 1 (expression in less than 20% of the cells) was 22%. It also gave a Percentage of inhibition of cell cultures; Neuroblastoma; Group 2 (expression in 20-80% of the cells) of 54%, a Percentage of inhibition of cell cultures; Neuroblastoma; Group 3 (expression in more than 80% of the cells) of 95% and a Percentage of inhibition of cell cultures; Neuroblastoma; Intensity grade 1 of 25%. For the same substance, the Percentage of inhibition of cell cultures; Neuroblastoma; Intensity grade 2 was 53%, the Percentage of inhibition of cell cultures; Neuroblastoma; Intensity grade 3 was 93% and the Percentage of inhibition of cell cultures; Non Hodgkin Lymphoma B (diffuse B cell lymphoma); cases with presence of AKT was 95%. It also gave a Percentage of inhibition of cell cultures; Non Hodgkin Lymphoma B (diffuse B cell lymphoma); cases with presence of ERK of 98%, a Percentage of inhibition of cell cultures; Non Hodgkin Lymphoma B (diffuse B cell lymphoma); cases without presence of AKT of 24% and a Percentage of inhibition of cell cultures; Non Hodgkin Lymphoma B (diffuse B cell lymphoma); cases without presence of ERK of 29%. The Percentage of inhibition of cell cultures; Non Hodgkin Lymphoma B; Group 1 (expression in less than 20% of the cells) was 23%, the Percentage of inhibition of cell cultures; Non Hodgkin Lymphoma B; Group 2 (expression in 20-80% of the cells) was 54% and the Percentage of inhibition of cell cultures; Non Hodgkin Lymphoma B; Group 3 (expression in more than 80% of the cells) was 96%. For the same substance, the Percentage of inhibition of cell cultures; Non Hodgkin Lymphoma B; Intensity grade 1 was 26%, the Percentage of inhibition of cell cultures; Non Hodgkin Lymphoma B; Intensity grade 2 was 55% and the Percentage of inhibition of cell cultures; Non Hodgkin Lymphoma B; Intensity grade 3 was 96%. The Percentage of inhibition of cell cultures; Non Hodgkin Lymphoma T (diffuse T cell lymphoma); cases with presence of AKT was 94%, the Percentage of inhibition of cell cultures; Non Hodgkin Lymphoma T (diffuse T cell lymphoma); cases with presence of ERK was 97% and the Percentage of inhibition of cell cultures; Non Hodgkin Lymphoma T (diffuse T cell lymphoma); cases without presence of AKT was 25%. The Percentage of inhibition of cell cultures; Non Hodgkin Lymphoma T (diffuse T cell lymphoma); cases without presence of ERK was 27%, the Percentage of inhibition of cell cultures; Non Hodgkin Lymphoma T; Group 1 (expression in less than 20% of the cells) was 23% and the Percentage of inhibition of cell cultures; Non Hodgkin Lymphoma T; Group 2 (expression in 20-80% of the cells) was 55%. For the same substance, the Percentage of inhibition of cell cultures; Non Hodgkin Lymphoma T; Group 3 (expression in more than 80% of the cells) was 96%, the Percentage of inhibition of cell cultures; Non Hodgkin Lymphoma T; Intensity grade 1 was 27% and the Percentage of inhibition of cell cultures; Non Hodgkin Lymphoma T; Intensity grade 2 was 56%. For the same substance, the Percentage of inhibition of cell cultures; Non Hodgkin Lymphoma T; Intensity grade 3 was 95%, the Percentage of inhibition of cell cultures; Ovarian carcinoma (Adenocarcinoma); cases with presence of AKT was 95% and the Percentage of inhibition of cell cultures; Ovarian carcinoma (Adenocarcinoma); cases with presence of ERK was 96%. It also gave a Percentage of inhibition of cell cultures; Ovarian carcinoma (Adenocarcinoma); cases without presence of AKT of 24%.
